Substitutions are numbered along the chain they refer to.
B1: anti-CD30 IgG1 (52-2) (antibody, V domains shown)
VH: EVQLVESGGGLVQPGGSLRLSCAASGFTFSSYYMHWVRQAPGKGLEWVSAISWSGGSTYYADSVKGRFTISRDNSKNTLYLQMNSLRAEDTAVYYCARDRFMPFIPNTLGFDVWGQGTLVTVSS
VL: DIQMTQSPSSLSASVGDRVTITCQASQDISNYLNWYQQKPGKAPKLLIYVASNLETGVPSRFSGSGSGTDFTFTISSLQPEDIATYYCQQDADVPLTFGQGTKVEIK
notes: also called aCD30 clone 52-2 IgG1
B2: anti-CD30 IgG1 (52-5) (antibody, V domains shown)
VH: B1 VH
VL: B1 VL with V50D
notes: also called aCD30 clone 52-5 IgG1
B3: anti-CD30 IgG1 (52-38) (antibody, V domains shown)
VH: B1 VH with Y33W, G56D, F101S, M102A, P103T, F104W, I105Y, P106Y, N107L, T108G
VL: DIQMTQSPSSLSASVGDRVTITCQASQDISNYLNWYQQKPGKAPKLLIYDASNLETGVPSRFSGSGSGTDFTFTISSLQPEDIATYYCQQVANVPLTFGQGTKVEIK
notes: also called aCD30 clone 52-38 IgG1

What follows are binders tested against T1, CD30 (analyte in SPR) (UniProt P28908 19-379, limits assumed) (assay: SPR, 25° C. pH 7.4, IgG1 captured on chip, CD30 as analyte, average value).
T1 construct: also called Cluster of Differentiation 30; Ki-1
T1 sequence (looked up): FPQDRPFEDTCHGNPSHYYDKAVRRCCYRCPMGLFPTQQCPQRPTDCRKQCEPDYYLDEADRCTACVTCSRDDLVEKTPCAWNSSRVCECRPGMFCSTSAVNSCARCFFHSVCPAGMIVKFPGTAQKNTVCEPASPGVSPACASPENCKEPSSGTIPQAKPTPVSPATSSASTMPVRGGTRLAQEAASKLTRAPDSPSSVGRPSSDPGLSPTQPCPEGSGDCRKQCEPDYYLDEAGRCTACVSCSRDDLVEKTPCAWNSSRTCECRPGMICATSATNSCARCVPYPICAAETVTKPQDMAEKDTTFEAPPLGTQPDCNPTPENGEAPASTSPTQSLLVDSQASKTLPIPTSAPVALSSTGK
Description: Using the VH and VL domains as noted above, the inventors prepared various CD30 binding constructs, and exemplary results for scFv and IgG1 constructs are shown below.
Binder B1 has a Kd of 3 nM. B2 gave a Kd of 22.3 nM. With B3 the Kd was 2.5 nM.
